Positions count from the first letter of the chain named.
B1: Ce1 (peptide)
peptide: DKEWILQKIYEIMRLLDELGHAEASMRVSDLIYEFMKKD
modifications: not checked
B2: Ce41 (peptide)
peptide: B1 peptide with L15R, L19E, A22G, M26L
modifications: not checked
B3: Ce9 (peptide)
peptide: B1 peptide with L15R, L19E
modifications: not checked
B4: Ce172 (peptide)
peptide: DKLWILQKIYEIMVRLDEEGHGEASLMVSDLIYEFMKRD
modifications: not checked
B5: Ce59 (peptide)
peptide: B4 peptide with L3E, V14R, M27R
modifications: not checked
B6: Ce149 (peptide)
peptide: B4 peptide with L3E, Q7Y
modifications: not checked

Assays:
Assay in all cases: cell-based or functional assay
[1] = target: receptor binding domain (RBD) in wild-type SARS-COV-2 (SARS-CoV-2 (wild-type)), P0DTC2
[2] = target: receptor binding domain (RBD) in the SARS-CoV-2 UK variant (B.1.1.7) (SARS-CoV-2 UK variant (B.1.1.7)), P0DTC2
[3] = target: receptor binding domain (RBD) in the SARS-CoV-2 Brazilian variant (P.1) (SARS-CoV-2 Brazilian variant (P.1)), P0DTC2

Binder	IC50 value, plaque reduction assay using wild-type SARS-COV-2 [1] [nM]	IC50 value, plaque reduction assay using the SARS-COV-2 UK variant (B.1.1.7) [2] [nM]	IC50 value, plaque reduction assay using the SARS-COV-2 Brazilian variant (P.1) [3] [nM]
B1	1.5	–	–
B2	–	0.68	–
B3	0.4	13	1200
B4	–	0.0022	–
B5	–	0.2	–
B6	–	0.0021	–

— patent US20240309059A1, “PEPTIDE HAVING ANTI-VIRAL ACTIVITY, ANTI-VIRAL AGENT COMPRISING SAID PEPTIDE, AND METHOD FOR PRODUCING SAID ANTI-VIRAL AGENT” (National University Corporation Tokyo Medical and Dental …, priority 2021, published 2024)
